Measured values reported in patent US20220048967A1 (published 2022).
Substitutions are numbered along the chain they refer to. Numbered stars: 1 amine (or outer) side, 2 acyl side, 3 side chain; on linkers, the order of the positions; unused ones are H or OH. Square brackets hold non-standard residues; d marks the D form. Side chains are listed from the residue outwards. Ends that are not written are not given here. * marks the point of attachment. C20 diacid = O=C(O)CCCCCCCCCCCCCCCCCCC(=O)*; γGlu = O=C(O)[C@H](CCC(=O)[*:2])N[*:1]; AEEA = NCCOCCOCC(=O)O; Aib = CC(C)(N)C(=O)O

T1: human GIP receptor (human, UniProt P48546 22-466)
T1 sequence (looked up): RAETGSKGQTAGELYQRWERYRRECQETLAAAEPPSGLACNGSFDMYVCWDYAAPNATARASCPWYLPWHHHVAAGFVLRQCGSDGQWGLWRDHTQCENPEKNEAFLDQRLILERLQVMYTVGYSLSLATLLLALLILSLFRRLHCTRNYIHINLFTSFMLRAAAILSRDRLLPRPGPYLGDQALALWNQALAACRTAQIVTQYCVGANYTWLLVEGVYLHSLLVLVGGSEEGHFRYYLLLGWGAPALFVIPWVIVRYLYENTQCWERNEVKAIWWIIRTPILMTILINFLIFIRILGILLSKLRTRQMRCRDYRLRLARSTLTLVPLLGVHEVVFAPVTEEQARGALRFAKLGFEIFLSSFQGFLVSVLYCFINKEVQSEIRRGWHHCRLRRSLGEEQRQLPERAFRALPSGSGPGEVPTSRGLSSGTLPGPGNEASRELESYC

B1: Example 4 (peptide)
peptide: YXEGTXTSDXSIXLDXKAQXEFIXXLIEGGPSSGAPPPS
modifications: Aib2; αMeF(2F)6; 4Pal10; αMeL13; Orn16; K17((2-[2-(2-Amino-ethoxy)-ethoxy]-acetyl)2-(γ-Glu)-CO-(CH2)16-CO2H); Aib20; D-Glu24; αMeY25; C-terminal NH2
B2: Example 86 (peptide)
peptide: Y[Aib]EGTFTSDYSILLDKK([AEEA-AEEA-γGlu-C20 diacid])AQ[Aib]AFIEYLIEAGPSSGAPPPS-NH2
modifications: N-terminus assumed
SMILES: CC[C@H](C)[C@H](NC(=O)[C@H](CC(C)C)NC(=O)[C@H](Cc1ccc(O)cc1)NC(=O)[C@H](CCC(=O)O)NC(=O)[C@@H](NC(=O)[C@H](Cc1ccccc1)NC(=O)[C@H](C)NC(=O)C(C)(C)NC(=O)[C@H](CCC(N)=O)NC(=O)[C@H](C)NC(=O)[C@H](CCCCNC(=O)COCCOCCNC(=O)COCCOCCNC(=O)CC[C@H](NC(=O)CCCCCCCCCCCCCCCCCCC(=O)O)C(=O)O)NC(=O)[C@H](CCCCN)NC(=O)[C@H](CC(=O)O)NC(=O)[C@H](CC(C)C)NC(=O)[C@H](CC(C)C)NC(=O)[C@@H](NC(=O)[C@H](CO)NC(=O)[C@H](Cc1ccc(O)cc1)NC(=O)[C@H](CC(=O)O)NC(=O)[C@H](CO)NC(=O)[C@@H](NC(=O)[C@H](Cc1ccccc1)NC(=O)[C@@H](NC(=O)CNC(=O)[C@H](CCC(=O)O)NC(=O)C(C)(C)NC(=O)[C@@H](N)Cc1ccc(O)cc1)[C@@H](C)O)[C@@H](C)O)[C@@H](C)CC)[C@@H](C)CC)C(=O)N[C@@H](CCC(=O)O)C(=O)N[C@@H](C)C(=O)NCC(=O)N1CCC[C@H]1C(=O)N[C@@H](CO)C(=O)N[C@@H](CO)C(=O)NCC(=O)N[C@@H](C)C(=O)N1CCC[C@H]1C(=O)N1CCC[C@H]1C(=O)N1CCC[C@H]1C(=O)N[C@@H](CO)C(N)=O
B3: Example 79 (peptide)
peptide: XAEGTFTSDYSILLDKKAQXAFIEYLIEGGPSSGAPPPS
modifications: N-terminal Ac; D-Tyr1; K17((2-[2-(2-Amino-ethoxy)-ethoxy]-acetyl)2-(γ-Glu)-CO-(CH2)18-CO2H); Aib20; C-terminal NH2
B4: Example 89 (peptide)
peptide: B3 peptide with X1Y, A2X, E3X
modifications: Aib2; Aad3; K17((2-[2-(2-Amino-ethoxy)-ethoxy]-acetyl)2-(γ-Glu)-CO-(CH2)18-CO2H); Aib20; C-terminal NH2
B5: Example 83 (peptide)
peptide: B3 peptide with X1Y, A2X, E28X
modifications: Aib2; K17((2-[2-(2-Amino-ethoxy)-ethoxy]-acetyl)2-(γ-Glu)-CO-(CH2)18-CO2H); Aib20; D-Glu28; C-terminal NH2
B6: Example 81 (peptide)
peptide: B3 peptide with X1Y, A2X, S11X
modifications: Aib2; D-Ser11; K17((2-[2-(2-Amino-ethoxy)-ethoxy]-acetyl)2-(γ-Glu)-CO-(CH2)18-CO2H); Aib20; C-terminal NH2
B7: Example 84 (peptide)
peptide: B3 peptide with X1Y, A2X, E24X
modifications: Aib2; K17((2-[2-(2-Amino-ethoxy)-ethoxy]-acetyl)2-(γ-Glu)-CO-(CH2)18-CO2H); Aib20; D-Glu24; C-terminal NH2
B8: Example 82 (peptide)
peptide: B3 peptide with X1Y, A2X, I12X
modifications: Aib2; D-Ile12; K17((2-[2-(2-Amino-ethoxy)-ethoxy]-acetyl)2-(γ-Glu)-CO-(CH2)18-CO2H); Aib20; C-terminal NH2
B9: Example 85 (peptide)
peptide: Y[Aib]EGTFTSDASILLDKK([AEEA-AEEA-γGlu-C20 diacid])AQ[Aib]AFIEYLIEGGPSSGAPPPS-NH2
modifications: N-terminus assumed
SMILES: CC[C@H](C)[C@H](NC(=O)[C@H](CC(C)C)NC(=O)[C@H](Cc1ccc(O)cc1)NC(=O)[C@H](CCC(=O)O)NC(=O)[C@@H](NC(=O)[C@H](Cc1ccccc1)NC(=O)[C@H](C)NC(=O)C(C)(C)NC(=O)[C@H](CCC(N)=O)NC(=O)[C@H](C)NC(=O)[C@H](CCCCNC(=O)COCCOCCNC(=O)COCCOCCNC(=O)CC[C@H](NC(=O)CCCCCCCCCCCCCCCCCCC(=O)O)C(=O)O)NC(=O)[C@H](CCCCN)NC(=O)[C@H](CC(=O)O)NC(=O)[C@H](CC(C)C)NC(=O)[C@H](CC(C)C)NC(=O)[C@@H](NC(=O)[C@H](CO)NC(=O)[C@H](C)NC(=O)[C@H](CC(=O)O)NC(=O)[C@H](CO)NC(=O)[C@@H](NC(=O)[C@H](Cc1ccccc1)NC(=O)[C@@H](NC(=O)CNC(=O)[C@H](CCC(=O)O)NC(=O)C(C)(C)NC(=O)[C@@H](N)Cc1ccc(O)cc1)[C@@H](C)O)[C@@H](C)O)[C@@H](C)CC)[C@@H](C)CC)C(=O)N[C@@H](CCC(=O)O)C(=O)NCC(=O)NCC(=O)N1CCC[C@H]1C(=O)N[C@@H](CO)C(=O)N[C@@H](CO)C(=O)NCC(=O)N[C@@H](C)C(=O)N1CCC[C@H]1C(=O)N1CCC[C@H]1C(=O)N1CCC[C@H]1C(=O)N[C@@H](CO)C(N)=O
B10: Example 88 (peptide)
peptide: YPEGTFTSDYSILLDKK([AEEA-AEEA-γGlu-C20 diacid])AQ[Aib]AFIEYLIEGGPSSGAPPPS-NH2
modifications: N-terminus assumed
SMILES: CC[C@H](C)[C@H](NC(=O)[C@H](CC(C)C)NC(=O)[C@H](Cc1ccc(O)cc1)NC(=O)[C@H](CCC(=O)O)NC(=O)[C@@H](NC(=O)[C@H](Cc1ccccc1)NC(=O)[C@H](C)NC(=O)C(C)(C)NC(=O)[C@H](CCC(N)=O)NC(=O)[C@H](C)NC(=O)[C@H](CCCCNC(=O)COCCOCCNC(=O)COCCOCCNC(=O)CC[C@H](NC(=O)CCCCCCCCCCCCCCCCCCC(=O)O)C(=O)O)NC(=O)[C@H](CCCCN)NC(=O)[C@H](CC(=O)O)NC(=O)[C@H](CC(C)C)NC(=O)[C@H](CC(C)C)NC(=O)[C@@H](NC(=O)[C@H](CO)NC(=O)[C@H](Cc1ccc(O)cc1)NC(=O)[C@H](CC(=O)O)NC(=O)[C@H](CO)NC(=O)[C@@H](NC(=O)[C@H](Cc1ccccc1)NC(=O)[C@@H](NC(=O)CNC(=O)[C@H](CCC(=O)O)NC(=O)[C@@H]1CCCN1C(=O)[C@@H](N)Cc1ccc(O)cc1)[C@@H](C)O)[C@@H](C)O)[C@@H](C)CC)[C@@H](C)CC)C(=O)N[C@@H](CCC(=O)O)C(=O)NCC(=O)NCC(=O)N1CCC[C@H]1C(=O)N[C@@H](CO)C(=O)N[C@@H](CO)C(=O)NCC(=O)N[C@@H](C)C(=O)N1CCC[C@H]1C(=O)N1CCC[C@H]1C(=O)N1CCC[C@H]1C(=O)N[C@@H](CO)C(N)=O

The binders below were run against T1, human GIP receptor (assay: cell-based or functional assay).

Point of comparison: B4, “hGIPR cAMP EC50 ratio” value 1.57. Against it:
- B1 — higher, 5.95
- B2 — higher, 3.29
- B3 — higher, 2.11
- B5 — lower, 0.804
- B6 — lower, 0.373
- B7 — higher, 1.59
- B8 — lower, 0.00679
- B9 — lower, 0.111
- B10 — lower, 0.392

Point of comparison: B4, “hGIPR cAMP Rel EC50” value 0.119 nM. Against it:
- B1 — 4.4-fold lower, 0.0272 nM
- B2 — 2.6-fold lower, 0.0452 nM
- B3 — 1.6-fold lower, 0.0732 nM
- B5 — 1.5-fold higher, 0.182 nM
- B6 — 3.6-fold higher, 0.428 nM
- B7 — within 1.5-fold, 0.0915 nM
- B8 — 200-fold higher, 24.3 nM
- B9 — 14-fold higher, 1.67 nM
- B10 — 4-fold higher, 0.475 nM

What follows are binders tested against human GLP-1 receptor (human, UniProt P43220 24-463) (assay: cell-based or functional assay).

Point of comparison: B10, “hGLP1R cAMP EC50 ratio” value 0.0918. Against it:
- B1 — higher, 1.41
- B2 — higher, 0.243
- B3 — lower, 0.041
- B4 — higher, 0.175
- B5 — higher, 0.166
- B6 — lower, 0.063
- B7 — higher, 0.173
- B8 — lower, 0.00325
- B9 — higher, 1.13

Point of comparison: B2, “hGLP1R cAMP Rel EC50” value 0.271 nM. Against it:
- B1 — 9.1-fold lower, 0.0297 nM
- B3 — 7.5-fold higher, 2.02 nM
- B4 — within 1.5-fold, 0.335 nM
- B5 — within 1.5-fold, 0.387 nM
- B6 — 4.8-fold higher, 1.29 nM
- B7 — within 1.5-fold, 0.374 nM
- B8 — 96-fold higher, 26.1 nM
- B9 — 5.2-fold lower, 0.0518 nM
- B10 — 2.4-fold higher, 0.64 nM
